Test results reported in patent publication US20170369592A1, “NOVEL ANTI-FIBROBLAST ACTIVATION PROTEIN (FAP) ANTIBODIES AND USES DERIVED THEREOF” (Mabimmune Diagnostics AG, priority 2015, published 2017).

Legend:
[1] = biological target: T1, recombinant human FAP (rhFAP) (Homo sapiens, UniProt Q12884); test: Affinity (EC50) sandwich ELISA on SB9 oligopeptidase family; assay type: binding; settings: HRP-labelled antibody 0.004-400 nM
T1 construct: purchased Sino Biologicals 10464-H07H
T1 sequence (Q12884 26-760 limits assumed): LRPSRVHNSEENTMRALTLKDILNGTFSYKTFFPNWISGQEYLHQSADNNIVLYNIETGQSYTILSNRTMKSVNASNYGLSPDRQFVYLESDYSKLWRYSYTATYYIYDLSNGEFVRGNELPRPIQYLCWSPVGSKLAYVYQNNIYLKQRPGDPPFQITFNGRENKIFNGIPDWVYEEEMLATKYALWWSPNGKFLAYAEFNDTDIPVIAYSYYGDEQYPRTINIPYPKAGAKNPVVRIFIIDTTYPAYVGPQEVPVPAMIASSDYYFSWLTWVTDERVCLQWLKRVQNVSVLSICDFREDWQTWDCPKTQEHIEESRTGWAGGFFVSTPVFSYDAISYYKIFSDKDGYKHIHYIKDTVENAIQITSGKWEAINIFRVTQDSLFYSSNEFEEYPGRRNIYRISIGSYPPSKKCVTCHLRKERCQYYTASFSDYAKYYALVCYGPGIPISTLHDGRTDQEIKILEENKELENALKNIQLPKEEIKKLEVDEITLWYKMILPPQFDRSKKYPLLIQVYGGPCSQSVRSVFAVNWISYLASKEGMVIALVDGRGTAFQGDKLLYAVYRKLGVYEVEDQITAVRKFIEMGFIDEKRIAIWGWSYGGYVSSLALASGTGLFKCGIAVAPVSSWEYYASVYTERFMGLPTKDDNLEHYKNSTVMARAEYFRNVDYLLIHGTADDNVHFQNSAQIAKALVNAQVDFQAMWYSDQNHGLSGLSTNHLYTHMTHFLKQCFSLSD
Method: To determine the binding efficiency and inhibitory ability of NI-206.82C2 against other members of the SB9 oligopeptidase family that have sequence similarity to FAP, indirect ELISA and inhibition assays were performed on active enzyme targets. Active recombinant human enzymes evaluated in this assay include: Fibroblast Activation Protein (FAP; Sino Biologicals, 10464-H07H), Dipeptidyl Peptidase IV (DPPIV, BPS Bioscience 80040), Dipeptidyl Peptidase 8 (DPP8, BPS Bioscience 80080), Dipeptidyl Peptidase 9 (DPP9, BPS Bioscience […]), and Prolyl Oligopeptidase/Prolyl Endopeptidase (POP/PREP, BPS Bioscience 80105). Each recombinant peptidase was expressed with a purification tag, and attached to the 96 well ELISA plate using either a mouse anti-Histidine antibody (CloneTech), or a mouse anti-Glutathione S-transferase (GST, Sino Biologicals, 111213-MM02) tag antibody. Each enzyme was validated to bind and remained active on the ELISA plate using enzyme specific fluorogenic substrates. H-Gly-Pro-AMC (ATT Bioquest, 13450) was used to validate the presence and activity of DPP4, DPP9, and DPP8. […] Following a washing step, bound antibody was detected using 3,3′,5,5′-Tetramethylbenzidine (TMB) substrate. The reaction was stopped after 10 minutes by adding 2N H2SO4 and the resulting change in optical density was quantified using an ELISA plate reader at […] absorbance (FIG. 7 B).

[2] = test system: carotid artery photochemical injury-induced thrombosis; test: Carotid artery photochemical injury-induced thrombosis model; assay type: in vivo, mouse; settings: 95% confidence interval=0.01-0.16, p<0.0001
Method: The carotid artery photochemical injury-induced thrombosis model begins with anesthesia by intraperitoneal injection of sodium pentobarbital (87 mg/kg body weight). After slight tail warming (using warm water) rose bengal (10 mg/mL in PBS) is injected into the tail vein in a volume of 0.12 mL at a concentration of 50 mg/kg. Mice will then be secured in a supine position (with the head pointing towards the operator) and placed on a heating pad (rectal temperature will be monitored) under a dissecting microscope. Following a (2.5-3 cm) midline cervical incision and a small incision of the larynx to provide a tracheostoma, by blunt preparation the right common carotid artery is exposed and cleared of connective tissue. A surgical stitch is employed to fix the stemocleidomastoid muscle aside to the right and increase access area to the right carotid artery. Care must be taken to avoid excessive vessel manipulation during procedures. […] Flow will be measured during these 60 minutes and for further 60 minutes (max time elapse 120 minutes) or until occlusion occurs. […]
Mice will be placed on a heating pad, to avoid a drop of body temperature. Heart rate (probe measuring the blood flow will also measure the heart rate) will be monitored during the surgery. […]

B1: NI-206.82C2: recombinant human memory B cell-derived monoclonal anti-FAP IgG1 antibody, variable regions in FIG. 1A, FAP inhibitory (antibody, V domains shown)
VH: QVQLQQSGPGLVKPSQTLSLTCAISGDSVSSNSVTWNWIRQSPSRGLEWLGRTYYRSKWYNDYAVSVKGRITINPDTSKNQFYLQLKSVTPEDAAVYYCARDSSILYGDYWGQGTLVTVSS
VL: QAVLTQPSSLSASPGASASLTCTLPSGINVGTYRIFWFQQKPGSPPQYLLSYKSDSDNHQGSGVPSRFSGSKDASANAGILLISGLQSEDEADYYCMIWHSSAWVFGGGTKLTVL
- binding to rhFAP [1]: selectively binds
- Log-rank hazard ratio, arterial occlusion versus 43A11 [2]: 0.04
